Source: article PMC4658703 (2012)

Target: IGF2 (Homo sapiens, UniProt P01344)
Sequence (P01344 25-91): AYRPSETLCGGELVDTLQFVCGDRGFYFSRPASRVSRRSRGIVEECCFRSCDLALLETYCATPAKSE

B1: IGF2R domain 11 (protein)
chain: MKSNEHDDCQVTNPSTGHLFDLSSLSGRAGFTAAYSKSGVVYMSICGENENCPPGVGACFGQTRISVGKANKRLRYVDQVLQLVYKDGSPCPSKSGLSYKSVISFVCRPEARPTNRPMLISLDKQTCTLFFSWHTPLACEQAT
Kd: 15 nM
